Residue numbers refer to the chain shown, from its start. Non-standard residues stand in square brackets, D forms with d. No end group written: not given here. fluorescein = fluorescein-6-aminohexanoyl label; pY = N[C@@H](Cc1ccc(OP(=O)(O)O)cc1)C(=O)O; Ahx = NCCCCCC(=O)O

We go through 2 molecules from article PMC6392469 (Cellular signalling, 2018).

Assay [1] concerns the target T1, C1-Ten SH2 domain (C1-Ten/Tensin2) (Homo sapiens, UniProt Q63HR2).
T1 sequence (Q63HR2 1120-1253): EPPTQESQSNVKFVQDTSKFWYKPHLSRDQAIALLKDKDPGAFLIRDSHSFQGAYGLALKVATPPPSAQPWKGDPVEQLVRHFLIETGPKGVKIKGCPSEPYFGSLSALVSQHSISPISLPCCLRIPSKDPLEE
The assay can be described thus: equilibrium SPR, L1 chip with lipid vesicles. The assay is classed as binding.

The target in assay [2] is T2, C1-Ten SH2 domain (C1-Ten/Tensin2) (Homo sapiens, UniProt Q63HR2, K1142Q/K1155Q/K1157Q).
T2 sequence (Q63HR2 1120-1253 K1142Q/K1155Q/K1157Q): T1 sequence (Q63HR2 1120-1253) with K23Q, K36Q, K38Q
The assay can be described thus: equilibrium SPR, L1 chip with lipid vesicles. The assay is classed as binding.

Assay [3] deals with T3, C1-Ten/Tensin2 SH2 domain K1142Q/K1155Q/K1157Q (UniProt Q63HR2 1120-1253, K1142Q | K1155Q | K1157Q).
T3 sequence (looked up): T1 sequence (Q63HR2 1120-1253) with K23Q, K36Q, K38Q
Put plainly: fluorescence polarisation. In general terms: Polarisation of emitted light reports the rotation of a fluorescent probe.

Assay [4] concerns the target T4, C1-Ten/Tensin2 SH2 domain, wild type (UniProt Q63HR2 1120-1253).
T4 sequence (looked up): T1 sequence (Q63HR2 1120-1253)
The assay can be described thus: fluorescence polarisation.

Assay [5] has as its target T5, C1-Ten/Tensin2 SH2 domain R1165A (UniProt Q63HR2 1120-1253, R1165A).
T5 sequence (looked up): T1 sequence (Q63HR2 1120-1253) with R46A
The assay can be described thus: fluorescence polarisation.

By Kd is commonly meant the constant that tells how readily two partners part at equilibrium. A higher Kd goes with a looser complex. With `CCCCCCCCCCCCCCCC(=O)OC[C@H](COP(=O)(O)O[C@H]1[C@H](O)[C@@H](OP(=O)(O)O)[C@H](OP(=O)(O)O)[C@@H](OP(=O)(O)O)[C@H]1O)OC(=O)CCCCCCCCCCCCCCC` [PtdIns(3,4,5)P3], the results for the Kd in assay [1] and in assay [2] were 260 ± 40 nM and 1260 ± 128 nM, respectively.
Regarding {fluorescein-Ahx}-NE[pY]DNV [F-Ahx-NEpYDNV, fluorescein-6-aminohexanoyl-labeled pY-containing peptide], the equilibrium dissociation constant (Kd) in assay [3] worked out at 3600 ± 1400 nM; in assay [4], 2500 ± 1300 nM; in assay [5], 90900 ± 11400 nM.
